Reference: patent US20250012721A1, “FLUORESCENCE DETECTION KIT FOR ACTIVATED COMPLEMENT C1s, DETECTION METHOD USING SAME, AND USE THEREOF” (JIANGSU UNIVERSITY, priority 2022, published 2025)

B1: Double-stranded C1r: interfering antigenic substance (complement analogue) that might exist in serum (protein)
chain: SIPIPQKLFGEVTSPLFPKPYPNNFETTTVITVPTGYRVKLVFQQFDLEPSEGCFYDYVKISADKKSLGRFCGQLGSPLGNPPGKKEFMSQGNKMLLTFHTDFSNEENGTIMFYKGFLAYYQAVDLDECASRSKSGEEDPQPQCQHLCHNYVGGYFCSCRPGYELQEDTHSCQAECSSELYTEASGYISSLEYPRSYPPDLRCNYSIRVERGLTLHLKFLEPFDIDDHQQVHCPYDQLQIYANGKNIGEFCGKQRPPDLDTSSNAVDLLFFTDESGDSRGWKLRYTTEIIKCPQPKTLDEFTIIQNLQPQYQFRDYFIATCKQGYQLIEGNQVLHSFTAVCQDDGTWHRAMPRCKIKDCGQPRNLPNGDFRYTTTMGVNTYKARIQYYCHEPYYKMQTRAGSRESEQGVYTCTAQGIWKNEQKGEKIPRCLPVCGKPVNPVEQRQRIIGGQKAKMGNFPWQVFTNIHGRGGGALLGDRWILTAAHTLYPKEHEAQSNASLDVFLGHTNVEELMKLGNHPIRRVSVHPDYRQDESYNFEGDIALLELENSVTLGPNLLPICLPDNDTFYDLGLMGYVSGFGVMEEKIAHDLRFVRLPVANPQACENWLRGKNRMDVFSQNMFCAGHPSLKQDACQGDSGGVFAVRDPNTDRWVATGIVSWGIGCSRGYGFYTKVLNYVDWIKKEMEEED
B2: MASP1: interfering antigenic substance (complement analogue), from Abnova (protein)
chain: HTVELNNMFGQIQSPGYPDSYPSDSEVTWNITVPDGFRIKLYFMHFNLESSYLCEYDYVKVETEDQVLATFCGRETTDTEQTPGQEVVLSPGSFMSITFRSDFSNEERFTGFDAHYMAVDVDECKEREDEELSCDHYCHNYIGGYYCSCRFGYILHTDNRTCRVECSDNLFTQRTGVITSPDFPNPYPKSSECLYTIELEEGFMVNLQFEDIFDIEDHPEVPCPYDYIKIKVGPKVLGPFCGEKAPEPISTQSHSVLILFHSDNSGENRGWRLSYRAAGNECPELQPPVHGKIEPSQAKYFFKDQVLVSCDTGYKVLKDNVEMDTFQIECLKDGTWSNKIPTCKIVDCRAPGELEHGLITFSTRNNLTTYKSEIKYSCQEPYYKMLNNNTGIYTCSAQGVWMNKVLGRSLPTCLPVCGLPKFSRKLMARIFNGRPAQKGTTPWIAMLSHLNGQPFCGGSLLGSSWIVTAAHCLHQSLDPEDPTLRDSDLLSPSDFKIILGKHWRLRSDENEQHLGVKHTTLHPQYDPNTFENDVALVELLESPVLNAFVMPICLPEGPQQEGAMVIVSGWGKQFLQRFPETLMEIEIPIVDHSTCQKAYAPLKKKVTRDMICAGEKEGGKDACAGDSGGPMVTLNRERGQWYLVGTVSWGDDCGKKDRYGVYSYIHHNKDWIQRVTGVRN
B3: MASP2: interfering antigenic substance (complement analogue), from Abnova (protein)
chain: TPLGPKWPEPVFGRLASPGFPGEYANDQERRWTLTAPPGYRLRLYFTHFDLELSHLCEYDFVKLSSGAKVLATLCGQESTDTERAPGKDTFYSLGSSLDITFRSDYSNEKPFTGFEAFYAAEDIDECQVAPGEAPTCDHHCHNHLGGFYCSCRAGYVLHRNKRTCSALCSGQVFTQRSGELSSPEYPRPYPKLSSCTYSISLEEGFSVILDFVESFDVETHPETLCPYDFLKIQTDREEHGPFCGKTLPHRIETKSNTVTITFVTDESGDHTGWKIHYTSTAQPCPYPMAPPNGHVSPVQAKYILKDSFSIFCETGYELLQGHLPLKSFTAVCQKDGSWDRPMPACSIVDCGPPDDLPSGRVEYITGPGVTTYKAVIQYSCEETFYTMKVNDGKYVCEADGFWTSSKGEKSLPVCEPVCGLSARTTGGRIYGGQKAKPGDFPWQVLILGGTTAAGALLYDNWVLTAAHAVYEQKHDASALDIRMGTLKRLSPHYTQAWSEAVFIHEGYTHDAGFDNDIALIKLNNKVVINSNITPICLPRKEAESFMRTDDIGTASGWGLTQRGFLARNLMYVDIPIVDHQKCTAAYEKPPYPRGSVTANMLCAGLESGGKDSCRGDSGGALVFLDSETERWFVGGIVSWGSMNCGEAGQYGVYTKVINYIPWIENIISDF

Tested on: activated C1s
Experiment: Cross reaction test of fluorescence detection method for activated C1s
Assay type: biochemical
Conditions: for Measured concentration: interferent in PBS: double-stranded C1r 660 μg/mL, MASP1 and MASP2 5000 μg/mL; for Cross reaction rate (%): measured value/theoretical value×100%
Procedure: • 1. Preparation of a buffer: 1) Binding Buffer: 0.1 M morpholinoethanesulfonic acid (MES, pH=5.0); • 2) Washing Buffer: TBS containing 0.05% Tween 20; • 3) Blocking Buffer: containing 0.05 M Tris, 1.0% BSA, and 0.05% Tween 20; • 4) Desired Buffer: Tris buffer containing 0.05% Tween 20 and BSA; and • 5) Tris Buffer: 0.05 M Tris, 0.15 M NaCl, and 0.2% (w/v) polyethylene glycol 8000. • 2. Preparation of immunomagnetic beads (C1s recombinant antibody-coupled magnetic beads) • (1) 10 mg of magnetic beads (Merck carboxyl magnetic beads, with a particle size of 1 μm) were washed 3 times with 1 mL of Binding Buffer, and vortexed to mix evenly. • (2) 20 μg of the C1s recombinant antibody obtained in Example 1 was added into every 1 mg of the magnetic beads, mixed well, and vortexed at a room temperature (25° C.) for 15 min. • (3) 50 μg of a coupling agent was added into every 1 mg of the magnetic beads, mixed well, and vortexed at a room temperature for 1 h. • (4) 1 mL of Binding Buffer was added and vortexed at a room temperature for 3 h. • (5) The magnetic beads were washed 4 times with 0.5 mL of Washing Buffer. • (6) The magnetic beads were resuspended with 1 mL of Desired Buffer to obtain C1s recombinant antibody-coupled magnetic beads with a concentration of 5 mg/mL, and stored at 4° C. until later use. • 3. Detection of the enzymatic activity of activated C1s • (1) 60 μL of the C1s recombinant antibody-coupled magnetic beads were stirred evenly, subjected to magnetic suction to remove a supernatant, added with 200 μL of PBS to mix well, subjected to the magnetic suction to remove a supernatant, and washed repeatedly 2 times. • (2) 10 μL of a sample to be tested or activated C1s standards with different concentrations were diluted to 100 μL with PBS, and mixed vertically with the C1s recombinant antibody-coupled magnetic beads at a room temperature for 10 min. The magnetic suction was performed to discard a supernatant. According to the enzymatic activity of the C1s standard determined in Example 4, the enzymatic activity conversion of the C1s standards with different concentrations is shown in Table 2.
• (3) The magnetic beads were repeatedly washed 3 times with 100 μL of PBS. • (4) The magnetic beads were resuspended with 90 μL of Tris buffer. • (5) 10 μL of substrate peptide 3 was added at a concentration of 1 μg/mL. • (6) The detection was performed with a microplate reader at 360/40 excitation light wave and 460/40 emission light wave, with a best reaction time of 1 h as a detection point, and the fluorescence signals were measured and recorded. The straight line fitting was performed by taking a C1s enzymatic activity as an abscissa and a fluorescence signal as an ordinate with a double logarithmic Log-Log mathematical model and using a least square method to plot a standard curve.
In this example, the specificity of the activated C1s was tested. The interfering antigenic substances (complement analogues) that might exist in serum were detected, such as double-stranded C1r, MASP1, and MASP2. The double-stranded C1r, MASP1, and MASP2 were separately diluted with PBS, and the diluted concentrations were 0.66 mg/mL, 5 mg/mL, and 5 mg/mL, successively. The complement analogues were detected based on the steps of Example 5. A cross reaction rate of various substances was calculated. Cross reaction rate=measured value/theoretical value×100%. […] The cross reaction rates were all less than 0.5%.

Molecule	Measured concentration (C1s equivalent in brackets) [µg/mL]	Measured concentration [pmol/min/µg]	Cross reaction rate (%)	Cross reaction rate (%) (listed as double-stranded C1r)
B1	1	0.91	0.15	0.3
B2	2	1.82	0.04	–
B3	1.8	1.64	0.04	–
